Data from patent publication US20200010571A1 (Janssen / Centocor, published 2020).
Numbering of substitutions follows the chain as printed. Values joined by “and” are separate entries in the source; they are usually repeats but may differ in a detail not shown here. Identical values can stand only once.

How the values were obtained:
[1] = biological target: protease-resistant form of human transmembrane TNF-α (lacks amino acids Val1 to Pro12) overexpressed by K2 … (human, UniProt P01375 1-233); experiment: cell-based or functional assay
[2] = biological target: T1, rhTNF-α (recombinant human, soluble) (human, UniProt P01375 77-233); experiment: cell-based or functional assay
[3] = biological target: T1, rhTNF-α (recombinant human, soluble); experiment: cell-based or functional assay; remark: listed apart in the source
[4] = biological target: T2, human IL-17A (recombinant) (human, UniProt Q16552 24-155); experiment: SPR (Biacore 3000), mAb captured by anti-IgG Fc, antigen in solution, 25 C, 1:1 Langmuir
T2 construct: Biotinylated in the IL-17RA ELISA; also called rhIL-17A

cynomolgus TNF-α [5] = biological target: T3, cynomolgus TNF-α (cynomolgus, UniProt P79337 77-233); experiment: SPR (Biacore 3000), mAb captured by anti-IgG Fc, antigen in solution, 1:1 Langmuir
T3 construct: also called Cyno TNF-α

[6] = biological target: T4, recombinant human IL-17A/F heterodimer (human, UniProt Q16552 24-155; Q96PD4 31-163); experiment: cell-based or functional assay
[7] = biological target: T2, human IL-17A (recombinant); experiment: competition ELISA: biotinylated rhIL-17A binding to plate-coated rhIL-17RA-Fc
cynomolgus TNF-α [8] = biological target: T3, cynomolgus TNF-α; experiment: cell-based or functional assay
[9] = biological target: native (endogenous) human TNF-α (human, UniProt P01375 77-233); experiment: cell-based or functional assay
cynomolgus IL-17A [10] = biological target: T5, cynomolgus IL-17A (cynomolgus, UniProt Q16552 24-155 (human entry), limits assumed); experiment: cell-based or functional assay
T5 chain: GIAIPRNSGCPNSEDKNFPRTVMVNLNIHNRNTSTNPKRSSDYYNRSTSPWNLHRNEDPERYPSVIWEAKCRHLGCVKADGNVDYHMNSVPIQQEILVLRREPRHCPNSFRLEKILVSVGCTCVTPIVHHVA

[11] = biological target: T2, human IL-17A (recombinant); experiment: cell-based or functional assay
[12] = biological target: T1, rhTNF-α (recombinant human, soluble); experiment: SPR (Biacore 3000), mAb captured by anti-IgG Fc, antigen in solution, 25 C, 1:1 Langmuir
recombinant human IL-17F = biological target: T6, recombinant human IL-17F (human, UniProt Q96PD4 31-163); experiment: binding to rhIL-17A in the absence or presence of IL-17F
T6 sequence: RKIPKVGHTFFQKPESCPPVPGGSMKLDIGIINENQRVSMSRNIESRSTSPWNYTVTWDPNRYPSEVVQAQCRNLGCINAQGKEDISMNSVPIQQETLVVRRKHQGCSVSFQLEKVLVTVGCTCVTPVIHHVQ

[13] = biological target: T2, human IL-17A (recombinant); experiment: competition ELISA: biotinylated rhIL-17A binding to plate-coated rhIL-17RA-Fc; Experiment 2; 95% CI 0.1639-0.1853
[14] = biological target: T1, rhTNF-α (recombinant human, soluble); experiment: cell-based or functional assay; remark: listed apart in the source
cynomolgus IL-17A [15] = biological target: T5, cynomolgus IL-17A; experiment: SPR (Biacore 3000), mAb captured by anti-IgG Fc, antigen in solution, 1:1 Langmuir;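 further: run in PBS containing BSA and P20 at 25 °C, antigen injected at four dilutions, 3 min association, dissociation followed 20 min to 2 h, two independent experiments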
mouse IL-17A = biological target: T7, mouse IL-17A (mouse, UniProt Q62386 26-158); experiment: as above
T7 sequence: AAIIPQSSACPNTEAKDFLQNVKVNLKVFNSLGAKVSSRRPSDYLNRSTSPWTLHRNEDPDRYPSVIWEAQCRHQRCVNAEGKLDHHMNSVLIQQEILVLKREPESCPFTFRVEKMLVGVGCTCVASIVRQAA

rat IL-17A = biological target: T8, rat IL-17A (rat, UniProt Q61453 18-150); experiment: as above
T8 chain: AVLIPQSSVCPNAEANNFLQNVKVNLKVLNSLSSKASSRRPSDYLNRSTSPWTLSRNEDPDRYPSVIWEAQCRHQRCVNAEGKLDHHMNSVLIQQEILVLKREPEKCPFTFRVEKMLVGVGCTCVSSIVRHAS

[16] = biological target: T4, recombinant human IL-17A/F heterodimer; experiment: cell-based or functional assay; remark: listed apart in the source
[17] = biological target: T2, human IL-17A (recombinant); experiment: competition ELISA: biotinylated rhIL-17A binding to plate-coated rhIL-17RA-Fc; Experiment 3; 95% CI 0.2415-0.2667
rat TNF-α = biological target: T9, rat TNF-α (rat, UniProt P16599 80-235); experiment: SPR (Biacore 3000), mAb captured by anti-IgG Fc, antigen in solution
T9 sequence: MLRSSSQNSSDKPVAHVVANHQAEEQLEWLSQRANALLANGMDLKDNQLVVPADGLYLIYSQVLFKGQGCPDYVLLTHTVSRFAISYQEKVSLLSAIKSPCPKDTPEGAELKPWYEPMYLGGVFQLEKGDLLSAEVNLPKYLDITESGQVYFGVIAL

mouse TNF-α = biological target: T10, mouse TNF-α (mouse, UniProt P06804 80-235); experiment: as above
T10 sequence: T9 sequence with A23V, I59V, S92N, I97V, M118I, L131Q, I144F, T145A

[18] = biological target: T2, human IL-17A (recombinant); experiment: competition ELISA: biotinylated rhIL-17A binding to plate-coated rhIL-17RA-Fc; Experiment 1; 95% CI 0.1171-0.1378
[19] = biological target: T2, human IL-17A (recombinant); experiment: cell-based or functional assay; remark: listed apart in the source
cynomolgus IL-17A [20] = biological target: T5, cynomolgus IL-17A; experiment: cell-based or functional assay

B1: mAb 8759 (bispecific anti-TNF-α/IL-17A antibody, IgG1, YTE) (bispecific antibody)
heavy 1: not shown
light 1: not shown
heavy 2: QVQLLESGGGLVQPGGSLRLSCAASGFTFSSYAMSWVRQAPGKGLEWVSTISLTSGFTYYADSVKGRFTISRDNSKNTLYLQMNSLRAEDTAVYYCARQLTLDVWGQGTLVTVSSASTKGPSVFPLAPSSKSTSGGTAALGCLVKDYFPEPVTVSWNSGALTSGVHTFPAVLQSSGLYSLSSVVTVPSSSLGTQTYICNVNHKPSNTKVDKKVEPKSCDKTHTCPPCPAPELLGGPSVFLFPPKPKDTLYITREPEVTCVVVDVSHEDPEVKFNWYVDGVEVHNAKTKPREEQYNSTYRVVSVLTVLHQDWLNGKEYKCKVSNKALPAPIEKTISKAKGQPREPQVYTLPPSREEMTKNQVSLTCLVKGFYPSDIAVEWESNGQPENNYKTTPPVLDSDGSFLLYSKLTVDKSRWQQGNVFSCSVMHEALHNHYTQKSLSLSPGK
light 2: QSVLTQPPSVSVAPGQTARISCSGDNLGDKYANWYQQKPGQAPVLVIYDDIDRPSGIPERFSGSNSGNTATLTISGTQAEDEADYYCGSYDFFLGMIVFGGGTKLTVLGQPKAAPSVTLFPPSSEELQANKATLVCLISDFYPGAVTVAWKADSSPVKAGVETTTPSKQSNNKYAASSYLSLTPEQWKSHRSYSCQVTHEGSTVEKTVAPTECS
IC50 (nM); KYM-1D4 cells, cytotoxicity mediated by membrane bound human TNF-α; Experiment 1 [1]: 0.653 nM
IC50 (nM); KYM-1D4 cells, cytotoxicity mediated by membrane bound human TNF-α; Experiment 2 [1]: 0.883 nM
IC50 (nM); KYM-1D4 cells, cytotoxicity mediated by membrane bound human TNF-α; Experiment 3 [1]: 0.3 nM
IC50 (nM); WEHI-164 cells cytotoxicity mediated by soluble rhTNF-α; Experiment 1 [2]: 1.2 nM
IC50 (nM); WEHI-164 cells cytotoxicity mediated by soluble rhTNF-α; Experiment 2 [2]: 1.73 nM
IC50 (nM); WEHI-164 cells cytotoxicity mediated by soluble rhTNF-α; Experiment 3 [2]: 0.478 nM
fold of IC50 against the parental anti-TNF-α antibodies mAb 9809 and mAb 6696; rhTNF-α-induced cytotoxicity in WEHI-164 cells [3]: ~3 fold
Kd [4]: 0.0244 nM and 0.0389 nM
koff [4]: 4.36e-05 s⁻¹ and 3.74e-05 s⁻¹
kon [4]: 1.78e+06 M⁻¹ s⁻¹ and 961000 M⁻¹ s⁻¹
Kd (cynomolgus TNF-α [5]): 0.44 nM and 0.16 nM
koff (cynomolgus TNF-α [5]): 0.000114 s⁻¹
kon (cynomolgus TNF-α [5]): 259000 M⁻¹ s⁻¹ and 710000 M⁻¹ s⁻¹
IC50 (µg/mL); Inhibition of IL-17A/F mediated IL-6 production by NHDF; Experiment 1 [6]: 0.117 µg/mL
IC50 (µg/mL); Inhibition of IL-17A/F mediated IL-6 production by NHDF; Experiment 2 [6]: 0.133 µg/mL
IC50 (µg/mL); Inhibition of IL-17A/F mediated IL-6 production by NHDF; Experiment 3 [6]: 0.102 µg/mL
fold IC50 against the parental anti-IL-17A antibodies mAb 4782 and mAb 7206 [7]: ~3 fold
IC50 (nM); Inhibition of cyno TNF-α mediated cytotoxicity in WEHI-164 cells; Experiment 1 (cynomolgus TNF-α [8]): 3.82 nM
IC50 (nM); Inhibition of cyno TNF-α mediated cytotoxicity in WEHI-164 cells; Experiment 2 (cynomolgus TNF-α [8]): 14.9 nM
IC50 (nM); Inhibition of cyno TNF-α mediated cytotoxicity in WEHI-164 cells; Experiment 3 (cynomolgus TNF-α [8]): 7.32 nM
IC50 (nM); KYM-1D4 cells, cytotoxicity mediated by endogenous soluble TNF-α; Experiment 1 [9]: 0.283 nM
IC50 (nM); KYM-1D4 cells, cytotoxicity mediated by endogenous soluble TNF-α; Experiment 2 [9]: 0.294 nM
IC50 (nM); KYM-1D4 cells, cytotoxicity mediated by endogenous soluble TNF-α; Experiment 3 [9]: 0.143 nM
IC50 (µg/mL); Inhibition of cyno IL-17A mediated IL-6 production by NHDF; Experiment 3 (cynomolgus IL-17A [10]): 0.0476 µg/mL
IC50 (µg/mL); Inhibition of native IL-17A mediated IL-6 production by NHDF; Experiment 1 [11]: 0.0478 µg/mL
IC50 (µg/mL); Inhibition of native IL-17A mediated IL-6 production by NHDF; Experiment 2 [11]: 0.038 µg/mL
IC50 (µg/mL); Inhibition of native IL-17A mediated IL-6 production by NHDF; Experiment 3 [11]: 0.0608 µg/mL
Kd [12]: 0.0232 nM and 0.0192 nM
koff [12]: 4.07e-05 s⁻¹ and 3.76e-05 s⁻¹
kon [12]: 1.75e+06 M⁻¹ s⁻¹ and 1.96e+06 M⁻¹ s⁻¹
binding result (recombinant human IL-17F): no binding
IC50 [13]: 0.174 µg/mL
IC50 (nM); KYM-1D4 cells, cytotoxicity mediated by soluble rhTNF-α; Experiment 1 [14]: 0.13 nM
IC50 (nM); KYM-1D4 cells, cytotoxicity mediated by soluble rhTNF-α; Experiment 2 [14]: 0.261 nM
IC50 (nM); KYM-1D4 cells, cytotoxicity mediated by soluble rhTNF-α; Experiment 3 [14]: 0.147 nM
Kd (cynomolgus IL-17A [15]): 0.0265 nM and 0.0277 nM
koff (cynomolgus IL-17A [15]): 3.59e-05 s⁻¹ and 4.4e-05 s⁻¹
kon (cynomolgus IL-17A [15]): 1.35e+06 M⁻¹ s⁻¹ and 1.59e+06 M⁻¹ s⁻¹
Kd (mouse IL-17A): 1.01 nM
koff (mouse IL-17A): 0.00101 s⁻¹
kon (mouse IL-17A): 999000 M⁻¹ s⁻¹
Kd (rat IL-17A): 13.9 nM
koff (rat IL-17A): 0.00274 s⁻¹
kon (rat IL-17A): 197000 M⁻¹ s⁻¹
IC50 (µg/mL); Inhibition of IL-17A/F mediated GROα production by NHDF; Experiment 1 [16]: 0.283 µg/mL
IC50 (µg/mL); Inhibition of IL-17A/F mediated GROα production by NHDF; Experiment 2 [16]: 0.46 µg/mL
IC50 (µg/mL); Inhibition of IL-17A/F mediated GROα production by NHDF; Experiment 3 [16]: 0.435 µg/mL
IC50 [17]: 0.254 µg/mL
binding result (rat TNF-α): no binding (tested: up to 100 nM)
binding result (mouse TNF-α): no binding (tested: up to 100 nM)
IC50 [18]: 0.127 µg/mL
IC50 (µg/mL); Inhibition of native IL-17A mediated GROα production by NHDF; Experiment 1 [19]: 0.0755 µg/mL
IC50 (µg/mL); Inhibition of native IL-17A mediated GROα production by NHDF; Experiment 2 [19]: 0.0692 µg/mL
IC50 (µg/mL); Inhibition of native IL-17A mediated GROα production by NHDF; Experiment 3 [19]: 0.0653 µg/mL
IC50 (µg/mL); Inhibition of cyno IL-17A mediated GROα production by NHDF; Experiment 3 (cynomolgus IL-17A [20]): 0.142 µg/mL
